Tested on: B. subtilis peptidoglycan
Assay: Peptidoglycan binding (pelleting with insoluble peptidoglycan, SDS-PAGE/Coomassie)
Parameters: species or system Bacillus subtilis
Details: for binding to cell wall (result in words): his6-tagged extracellular domain
Excerpt: Peptidoglycan Binding. The C-terminal fragment of PrkC (His6-PASTABs) composed of residues 357-648 was purified using Ni^2+ affinity chromatography with an E. coli strain carrying pIMS40 that overproduces His6-PASTABs. His6-Yycl composed of residues 31-280 was purified using identical methodology using an E. coli strain carrying pIMS36. His6-AcmA composed of residues 243-439 using an E. coli strain carrying pIMS42 and His6-PASTASa composed of residues 378-644 using an E. coli strain carrying pIMS44 were purified using identical methodology. 50 μg of proteins was separately incubated with purified B. subtilis or S. aureus peptidoglycan (˜5 mg) in 20 mM Tris-HCl, 50 mM MgCl2, 500 mM NaCl for 30 min at 4° C. Centrifugation (10 min, 15 k) was employed to remove the supernatant (soluble fraction) and the pellet was washed twice, then resuspended it in 2% SDS and incubated at RT for 1 h. Bound fraction (insoluble fraction) was recovered by removing the […] by centrifugation. Fractions consisting of unbound soluble protein and insoluble bound protein, and the wash were analyzed by SDS-PAGE. The gels were stained with Coomassie blue and the differences in the amounts of His6-PASTA in the two fractions were determined by measurement of the appropriate bands using ImageJ (NIH).

B1: His6-PASTABs: His-tagged C-terminal extracellular fragment of B. subtilis PrkC, residues 357-648, three PASTA repeats (protein)
chain: MLIGKRISGRYQILRVIGGGGMANVYLAEDIILDREVAIKILRFDYANDNEFIRRFRREAQSASSLDHPNIVSIYDLGEEDDIYYIVMEYVEGMTLKEYITANGPLHPKEALNIMEQIVSAIAHAHQNQIVHRDIKPHNILIDHMGNIKVTDFGIATALSSTTITHTNSVLGSVHYLSPEQARGGLATKKSDIYALGIVLFELLTGRIPFDGESAVSIALKHLQAETPSAKRWNPSVPQSVENIILKATAKDPFHRYETAEDMEADIKTAFDADRLNEKRFTIQEDEEMTKAIPIIKDEELAKAAGEKEAEVTTAQENKTKKNGKRKKWPWVLLTICLVFITAGILAVTVFPSLFMPKDVKIPDVSGMEYEKAAGLLEKEGLQVDSEVLEISDEKIEEGLMVKTDPKADTTVKEGATVTLYKSTGKAKTEIGDVTGQTVDQAKKALKDQGFNHVTVNEVNDEKNAGTVIDQNPSAGTELVPSEDQVKLTVSIGPEDITLRDLKTYSKEAASGYLEDNGLKLVEKEAYSDDVPEGQVVKQKPAAGTAVKPGNEVEVTFSLGPEKKPAKTVKEKVKIPYEPENEGDELQVQIAVDDADHSISDTYEEFKIKEPTERTIELKIEPGQKGYYQVMVNNKVVSYKTIEYPKDE
% of total protein associated with the insoluble (peptidoglycan-bound) fraction (50 μg protein, ˜5 mg purified peptidoglycan): Approximately 40% | binding to cell wall (result in words): binds to cell wall much better than Yycl | binding to cell wall (result in words) (listed as extracellular domain of PrkC): bound to cell wall much better than a control protein
